The values below come from FireProtDB (doi:10.1021/bi034486i).

To fix the notation:
B1: Thioredoxin-like protein 4A, P83876 (parent)
chain: MSYMLPHLHNGWQVDQAILSEEDRVVVIRFGHDWDPTCMKMDEVLYSIAEKVKNFAVIYLVDITEVPDFNKMYELYDPCTVMFFFRNKHIMIDLGTGNNNKINWAMEDKQEMVDIIETVYRGARKGRGLVVSPKDYSTKYRY

The data set covers variants of B1. The settings on record: Homo sapiens; pH 7.82; 20 °C; GdnHCl; CD; sodium phosphate 50 mM; structure 1QGV; whole UniProt chain shown.
Turning to G126D, the “ddG of mutation (higher = less stable)” value is 1.71 kcal/mol, the denaturant m value is 2.78 kcal/mol/M, the “denaturant midpoint (higher = more stable)” value was 3.36 M and the unfolding free energy was 9.34 kcal/mol.
